Data as given in patent US20220056123A1, “USE OF IL-1BETA BINDING ANTIBODIES” (NOVARTIS AG, priority 2018, published 2022).
Like-named read-outs stand apart in the source and are kept apart here.

What was measured:
MDA-MB231 = assay: TNBC MDA-MB231 xenograft in humanized BLT mice; type: in vivo, humanized mouse; details: single agent arm, compared to isotype control
Description: • I. Tumor models: The role of IL-1β in tumor immunity and efficacy of IL-1β blocking antibodies were tested in the following preclinical models: • Xenograft tumors in humanized mouse models: NSCLC (H358), TNBC (MDA-MB231) and CRC (SW480) • Syngeneic tumor models: TNBC (4T1) and lung (LL-2) cancer • II. […] Combination treatments include chemotherapeutic agent, docetaxel (6.25 mg/Kg QW IV), PD-1 pathway inhibitors (anti-human PD-1, pembrolizumab 10 mg/Kg Q5D IP or anti-mouse PD-1, clone 1D2 10 mg/Kg QW IP) and anti-mouse VEGF blocking antibody (clone 4G3, 5 mg/Kg Q5D) were used in combination with anti-IL-1β antibody. Appropriate isotype controls were used. In all experiments, dosing was initiated after tumor implantation. • III. Experimental readouts: activity of therapeutic agents in preclinical models were assessed by the following: • Tumor volume was determined by measurement with calipers throughout the course of the study. Tumor weights in milligrams were determined at end of study • Immunohistochemistry analysis was performed on FFPE NSCLC (H358) xenograft tissue • Changes in immune populations in peripheral blood in CRC (SW480) xenograft humanized model and tumors in syngeneic models (4T1 and LL-2) were assessed by flow cytometry using markers for T cell, myeloid populations

mouse IL-1β = mouse IL-1β (Mus musculus, UniProt P10749); assay: Cross-reactivity with mouse IL-1β; type: binding
mouse IL-1β, sequence (P10749 118-269): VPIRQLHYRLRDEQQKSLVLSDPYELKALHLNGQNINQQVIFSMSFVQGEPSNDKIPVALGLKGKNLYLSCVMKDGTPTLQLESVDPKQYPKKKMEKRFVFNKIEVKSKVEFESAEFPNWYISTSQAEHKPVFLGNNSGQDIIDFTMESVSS

[1] = CANTOS immunogenicity, bridging ECLIA for anti-drug antibodies; type: in vivo, human
Description: During the CANTOS trial, blood samples for immunogenicity assessments were collected at baseline Month 12, 24 and end of study visit. Immunogenicity was analyzed using a bridging immunogenicity electrochemiluminescence immunoassay (ECLIA). Samples were pre-treated with acetic acid and neutralized in buffer containing labeled drug (biotinylated ACZ885 and sulfo-TAG (Ruthenium) labeled ACZ885). Anti-canakinumab antibodies (anti-drug antibodies) were captured by a combination of biotinylated and sulfo-TAG labeled forms of ACZ885. Complex formation was subsequently detected by electrochemiluminescence by capturing complexes on Mesoscale Discovery Streptavidin (MSD) plates.

[2] = system: CD34+ blood vessels in trabecular bone; assay: Bone microvasculature after suppression of IL-1β signalling; type: in vivo, BALB/c nude mice and C57BL/6 mice
Description: FIG. 7. IL-1β in the bone microenvironment stimulates expansion of the bone metastatic niche. Effects of adding 40 pg/ml or 5 ng/ml recombinant IL-1β to MDA-MB-231 or T47D breast cancer cells is shown in (a) and effects on adding 20 pg/ml, 40 pg/ml or 5 ng/ml IL-1B on proliferation of HS5, bone marrow, or OB1, osteoblasts, are shown in b) and c) respectively. (d) IL-1 driven alterations to the bone vasculature was measured following CD34 staining in the trabecular region of the tibiae from 10-12-week old female IL-1R1 knockout mice. […] Data are shown as mean+/−SEM, *=P<0.01, **=P<0.001, ***=P<0.0001.
FIG. 8. Suppression of IL-1β signalling affects bone integrity and vasculature. […] Data shown are mean+/−SEM, *=P<0.01, **=P<0.001, ***=P<0.0001 compared with control.
To model human breast cancer metastasis to human bone implants two human bone discs were implanted subcutaneously into 10-week old female NOD SCID mice (n=10/group) under isofluorane anaesthetic. Mice received an injection of 0.003 mg vetergesic and Septrin was added to the drinking water for 1 week following bone implantation. Mice were left for 4 weeks before injecting 1×10^5 MDA-MB-231 Luc2-TdTomato, MCF7 Luc2 or T47D Luc2 cells in 20% Martigel/79% PBS/1% toluene blue into the two hind mammary fat pads. Primary tumor growth and development of metastases was monitored weekly using an IVIS […] system (Caliper Life Sciences) following sub-cutaneous injection of 30 mg/ml D-luciferin (Invitrogen). On termination of experiments mammary tumors, circulating tumor cells, serum and bone metastases were resected. RNA was processed for downstream analysis by real time PCR, and cell lysates were taken for protein analysis and whole tissue for histology as previously described (Nutter et al., 2014; Ottewell et al., 2014a). […] Tumor cells, serum, and bone were subsequently resected for downstream analysis. Bone metastases were investigated following injection of 5×10^5 MDA-MB-231 GFP (control), MDA-MB-231-IV, MDA-MB-231-IL-1B-positive or MDA-MB-231-IL-1R1-positive cells into the lateral tail vein of 6 to 8-week old female BALB/c nude mice (n=12/group). Tumor growth in bones and lungs was monitored weekly by GFP imaging in live animals. Mice were culled 28 days after tumor cell injection at which timepoint hind limbs, lungs and serum were resected and processed for microcomputed tomography imaging (pCT), histology and ELISA analysis of bone turnover markers and circulating cytokines as described (Holen et al., 2016).

With “canakinumab: high-affinity, fully human monoclonal antibody of the IgG1/k to interleukin-1β” the “animals with slower tumor growth” value (MDA-MB231) was 100 % of animals, the “cross-reactivity with mouse IL-1β” value (mouse IL-1β) was “does not cross-react to murine IL-1β” and the “cross-reactivity with mouse IL-1β” value (mouse IL-1β; listed as Canakinumab) was “does not cross-react with mouse IL-1β”. For the same substance, the “patients with treatment-emergent anti-canakinumab antibodies” value ([1]; canakinumab 150 mg group) was 0.4%, the “patients with treatment-emergent anti-canakinumab antibodies” value ([1]; canakinumab 300 mg group) was 0.3% and the “association of anti-drug antibodies with AEs or hsCRP response” value ([1]; in vivo) was “not associated with immunogenicity related AEs or altered hsCRP response”. For the same substance, the “average length of CD34+ blood vessels in trabecular bone” value ([2]; IL-1Ra 1 mg/kg daily (BALB/c nude), canakinumab single dose (C57BL/6), p<0.01) was “reduced the average length”, the “endothelin 1 concentration (ELISA)” value ([2]; compared with control, p<0.01) was “reduced concentrations” and the “VEGF concentration (ELISA)” value ([2]; compared with control, p<0.01 IL-1R antagonist, p<0.001 canakinumab) was “reduced concentrations”.
